Data from US20260242735A1.

What was measured:
[1] = molecular target: human CD33 K312A (human) (UniProt P20138); assay: flow cytometry, HEK293-T, alanine scan
[2] = molecular target: human CD33 V282A (human) (UniProt P20138); assay: flow cytometry, HEK293-T, alanine scan
[3] = molecular target: human CD33 E337A (human) (UniProt P20138); assay: flow cytometry, HEK293-T, alanine scan
[4] = molecular target: human CD33 A293S (human) (UniProt P20138); assay: flow cytometry, HEK293-T, alanine scan
[5] = molecular target: human CD33 K288A (human) (UniProt P20138); assay: flow cytometry, HEK293-T, alanine scan
[6] = molecular target: human CD33 C276A (human) (UniProt P20138); assay: flow cytometry, HEK293-T, alanine scan
[7] = molecular target: human CD33 V332A (human) (UniProt P20138); assay: flow cytometry, HEK293-T, alanine scan
[8] = molecular target: human CD33 S342A (human) (UniProt P20138); assay: flow cytometry, HEK293-T, alanine scan
[9] = molecular target: human CD33 F345A (human) (UniProt P20138); assay: flow cytometry, HEK293-T, alanine scan
[10] = molecular target: human CD33 P308A (human) (UniProt P20138); assay: flow cytometry, HEK293-T, alanine scan
[11] = molecular target: human CD33 S323A (human) (UniProt P20138); assay: flow cytometry, HEK293-T, alanine scan
[12] = molecular target: human CD33 A272S (human) (UniProt P20138); assay: flow cytometry, HEK293-T, alanine scan
[13] = molecular target: human CD33 K309A (human) (UniProt P20138); assay: flow cytometry, HEK293-T, alanine scan
[14] = molecular target: human CD33 P330A (human) (UniProt P20138); assay: flow cytometry, HEK293-T, alanine scan
[15] = molecular target: human CD33 F280A (human) (UniProt P20138); assay: flow cytometry, HEK293-T, alanine scan
[16] = molecular target: human CD33 F279A (human) (UniProt P20138); assay: flow cytometry, HEK293-T, alanine scan
[17] = molecular target: human CD33 H317A (human) (UniProt P20138); assay: flow cytometry, HEK293-T, alanine scan
[18] = molecular target: human CD33 L271A (human) (UniProt P20138); assay: flow cytometry, HEK293-T, alanine scan
[19] = molecular target: human CD33 S314A (human) (UniProt P20138); assay: flow cytometry, HEK293-T, alanine scan
[20] = molecular target: human CD33 T320A (human) (UniProt P20138); assay: flow cytometry, HEK293-T, alanine scan
[21] = molecular target: human CD33 L343A (human) (UniProt P20138); assay: flow cytometry, HEK293-T, alanine scan
[22] = molecular target: human CD33 S326A (human) (UniProt P20138); assay: flow cytometry, HEK293-T, alanine scan
[23] = molecular target: human CD33 T331A (human) (UniProt P20138); assay: flow cytometry, HEK293-T, alanine scan
[24] = molecular target: human CD33 T302A (human) (UniProt P20138); assay: flow cytometry, HEK293-T, alanine scan
[25] = molecular target: human CD33 H310A (human) (UniProt P20138); assay: flow cytometry, HEK293-T, alanine scan
[26] = molecular target: human CD33 T303A (human) (UniProt P20138); assay: flow cytometry, HEK293-T, alanine scan
[27] = molecular target: human CD33 C274A (human) (UniProt P20138); assay: flow cytometry, HEK293-T, alanine scan
[28] = molecular target: human CD33 R286A (human) (UniProt P20138); assay: flow cytometry, HEK293-T, alanine scan
[29] = molecular target: human CD33 G156A (human) (UniProt P20138); assay: alanine scan, flow cytometry, HEK293-T
[30] = molecular target: human CD33 Q87A (human) (UniProt P20138); assay: alanine scan, flow cytometry, HEK293-T
[31] = molecular target: human CD33 E154A (human) (UniProt P20138); assay: alanine scan, flow cytometry, HEK293-T
[32] = molecular target: human CD33 C101A (human) (UniProt P20138); assay: alanine scan, flow cytometry, HEK293-T
[33] = molecular target: human CD33 D95A (human) (UniProt P20138); assay: alanine scan, flow cytometry, HEK293-T
[34] = molecular target: human CD33 S71A (human) (UniProt P20138); assay: alanine scan, flow cytometry, HEK293-T
[35] = molecular target: human CD33 Y116A (human) (UniProt P20138); assay: alanine scan, flow cytometry, HEK293-T
[36] = molecular target: human CD33 T86A (human) (UniProt P20138); assay: alanine scan, flow cytometry, HEK293-T
[37] = molecular target: human CD33 H143A (human) (UniProt P20138); assay: alanine scan, flow cytometry, HEK293-T
[38] = molecular target: human CD33 P150A (human) (UniProt P20138); assay: alanine scan, flow cytometry, HEK293-T
[39] = molecular target: human CD33 P46A (human) (UniProt P20138); assay: alanine scan, flow cytometry, HEK293-T
[40] = molecular target: human CD33 P132A (human) (UniProt P20138); assay: alanine scan, flow cytometry, HEK293-T
[41] = molecular target: human CD33 P145A (human) (UniProt P20138); assay: alanine scan, flow cytometry, HEK293-T
[42] = molecular target: human CD33 R111A (human) (UniProt P20138); assay: alanine scan, flow cytometry, HEK293-T
[43] = molecular target: human CD33 F118A (human) (UniProt P20138); assay: alanine scan, flow cytometry, HEK293-T
[44] = molecular target: human CD33 T152A (human) (UniProt P20138); assay: alanine scan, flow cytometry, HEK293-T
[45] = molecular target: human CD33 L153A (human) (UniProt P20138); assay: alanine scan, flow cytometry, HEK293-T

Sequence of human CD33 T86A (human) (P20138 18-364 T86A limits assumed): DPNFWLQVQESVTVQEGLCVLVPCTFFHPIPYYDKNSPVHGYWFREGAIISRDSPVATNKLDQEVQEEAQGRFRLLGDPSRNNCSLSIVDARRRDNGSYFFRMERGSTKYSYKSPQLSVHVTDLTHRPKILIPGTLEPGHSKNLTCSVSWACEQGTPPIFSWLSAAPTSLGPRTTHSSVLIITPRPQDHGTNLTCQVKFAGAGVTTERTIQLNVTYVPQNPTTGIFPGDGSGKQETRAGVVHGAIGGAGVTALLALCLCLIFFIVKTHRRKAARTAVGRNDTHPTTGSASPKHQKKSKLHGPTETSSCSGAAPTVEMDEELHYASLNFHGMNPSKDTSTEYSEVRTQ
Sequence of human CD33 G156A (human) (P20138 18-364 G156A limits assumed): as the sequence (P20138 18-364 T86A limits assumed) above, with A69T, G139A counted along it
Sequence of human CD33 P330A (human) (P20138 18-364 P330A limits assumed): as the sequence (P20138 18-364 T86A limits assumed) above, with A69T, P313A counted along it
Sequence of human CD33 C276A (human) (P20138 18-364 C276A limits assumed): as the sequence (P20138 18-364 T86A limits assumed) above, with A69T, C259A counted along it
Sequence of human CD33 R286A (human) (P20138 18-364 R286A limits assumed): as the sequence (P20138 18-364 T86A limits assumed) above, with A69T, R269A counted along it
Sequence of human CD33 S71A (human) (P20138 18-364 S71A limits assumed): as the sequence (P20138 18-364 T86A limits assumed) above, with S54A, A69T counted along it
Sequence of human CD33 D95A (human) (P20138 18-364 D95A limits assumed): as the sequence (P20138 18-364 T86A limits assumed) above, with A69T, D78A counted along it
Sequence of human CD33 E154A (human) (P20138 18-364 E154A limits assumed): as the sequence (P20138 18-364 T86A limits assumed) above, with A69T, E137A counted along it
Sequence of human CD33 V282A (human) (P20138 18-364 V282A limits assumed): as the sequence (P20138 18-364 T86A limits assumed) above, with A69T, V265A counted along it
Sequence of human CD33 P46A (human) (P20138 18-364 P46A limits assumed): as the sequence (P20138 18-364 T86A limits assumed) above, with P29A, A69T counted along it
Sequence of human CD33 F280A (human) (P20138 18-364 F280A limits assumed): as the sequence (P20138 18-364 T86A limits assumed) above, with A69T, F263A counted along it
Sequence of human CD33 Y116A (human) (P20138 18-364 Y116A limits assumed): as the sequence (P20138 18-364 T86A limits assumed) above, with A69T, Y99A counted along it
Sequence of human CD33 P145A (human) (P20138 18-364 P145A limits assumed): as the sequence (P20138 18-364 T86A limits assumed) above, with A69T, P128A counted along it
Sequence of human CD33 T152A (human) (P20138 18-364 T152A limits assumed): as the sequence (P20138 18-364 T86A limits assumed) above, with A69T, T135A counted along it

## Refmab #7 (WM53) (antibody)
[1]
  Mean % WT Binding: 101 % WT binding
[2]
  Mean % WT Binding: 106 % WT binding
[3]
  Mean % WT Binding: 102 % WT binding
[4]
  Mean % WT Binding: 120 % WT binding
[5]
  Mean % WT Binding: 128 % WT binding
[6]
  Mean % WT Binding: 110 % WT binding
[7]
  Mean % WT Binding: 112 % WT binding
[8]
  Mean % WT Binding: 95.2 % WT binding
[9]
  Mean % WT Binding: 140 % WT binding
[10]
  Mean % WT Binding: 111 % WT binding
[11]
  Mean % WT Binding: 109 % WT binding
[12]
  Mean % WT Binding: 113 % WT binding
[13]
  Mean % WT Binding: 93.6 % WT binding
[14]
  Mean % WT Binding: 102 % WT binding
[15]
  Mean % WT Binding: 104 % WT binding
[16]
  Mean % WT Binding: 124 % WT binding
[17]
  Mean % WT Binding: 112 % WT binding
[18]
  Mean % WT Binding: 113 % WT binding
[19]
  Mean % WT Binding: 107 % WT binding
[20]
  Mean % WT Binding: 117 % WT binding
[21]
  Mean % WT Binding: 96.2 % WT binding
[22]
  Mean % WT Binding: 103 % WT binding
[23]
  Mean % WT Binding: 108 % WT binding
[24]
  Mean % WT Binding: 113 % WT binding
[25]
  Mean % WT Binding: 90.4 % WT binding
[26]
  Mean % WT Binding: 77.1 % WT binding
[27]
  Mean % WT Binding: 102 % WT binding
[28]
  Mean % WT Binding: 134 % WT binding
[29]
  Mean % WT Binding: 112 % WT binding
[30]
  Mean % WT Binding: 90.1 % WT binding
[31]
  Mean % WT Binding: 108 % WT binding
[32]
  Mean % WT Binding: 1.8 % WT binding
[33]
  Mean % WT Binding: 104 % WT binding
[34]
  Mean % WT Binding: 104 % WT binding
[35]
  Mean % WT Binding: 1.7 % WT binding
[36]
  Mean % WT Binding: 111 % WT binding
[37]
  Mean % WT Binding: 112 % WT binding
[38]
  Mean % WT Binding: 115 % WT binding
[39]
  Mean % WT Binding: 75.3 % WT binding
[40]
  Mean % WT Binding: 104 % WT binding
[41]
  Mean % WT Binding: 102 % WT binding
[42]
  Mean % WT Binding: 94 % WT binding
[43]
  Mean % WT Binding: 3.2 % WT binding
[44]
  Mean % WT Binding: 102 % WT binding
[45]
  Mean % WT Binding: 101 % WT binding
